Data: paper PMC8034716

Target: HLA-A*0201
Assay: T2 stabilization assay (BB7.2 anti-HLA-A2 staining)
Details: peptide-pulsed T2 cells; parent: est. 100; read off a plot

Substance	percent of parent [%]
wild type p53 65-73 peptide (…) P7A	84
wild type p53 65-73 peptide (…) P3A	61
wild type p53 65-73 peptide (…) M2A	89
wild type p53 65-73 peptide (…) V9A	110
wild type p53 65-73 peptide (…) R1G	100
wild type p53 65-73 peptide (…) V9G	67
wild type p53 65-73 peptide (…) P7G	47
wild type p53 65-73 peptide (…) P8G	72
wild type p53 65-73 peptide (…) P3G	65
wild type p53 65-73 peptide (…) A6G	68

Results, then the substance that gave them:

percent of parent [%]	Substance
89	wild type p53 65-73 peptide (…) M2G
100	wild type p53 65-73 peptide (…) E4G
89	wild type p53 65-73 peptide (…) P8A
100	wild type p53 65-73 peptide (…) A5G
76	wild type p53 65-73 peptide (…) E4A
120	wild type p53 65-73 peptide (…) R1A
